Source: patent US20030113725A1

Legend:
[1] = target: HA epitope tagged wild-type alpha-2B adrenergic receptor (human) (UniProt P18089); test: cell-based or functional assay
[2] = target: HA epitope tagged Del301-303 alpha-2B adrenergic receptor (human) (UniProt P18089); test: cell-based or functional assay
[3] = test system: HA epitope tagged Del301-303 alpha-2B adrenergic receptor
Gi = test: cell-based or functional assay
Gi/Go = test: cell-based or functional assay

Molecule | inhibition of adenylyl cyclase (epinephrine, CHO membranes) (Gi) [% inhibition] | maximal inhibition of adenylyl cyclase (partial agonist oxymetazoline, CHO membranes) (Gi) [% inhibition] | stimulation of MAP kinase (10 µM epinephrine, CHO cells) (fold increase over basal) (Gi) | epinephrine-stimulated accumulation of inositol phosphates (10 µM, intact CHO cells) (Gi/Go) [% over basal] | high affinity dissociation constant KH of the agonist epinephrine (competition with [3H]yohimbine without GTP) (Gi/Go) [nM] | percentage of receptors in the high-affinity state (% RH), epinephrine competition without GTP (Gi/Go) [%] | Max Inhibition (%) of adenylyl cyclase, BHT-933 (Gi) [%] | Max Inhibition (%) of adenylyl cyclase, UK 14304 (Gi) [%] | Max Inhibition (%) of adenylyl cyclase, clonidine (Gi) [%] | Max Inhibition (%) of adenylyl cyclase, guanabenz (Gi) [%] | Max Inhibition (%) of adenylyl cyclase, norepinephrine (Gi) [%] | Max Inhibition (%) of adenylyl cyclase, oxymetazoline (Gi) [%] | inhibition of adenylyl cyclase (epinephrine, lower expressing CHO lines) (Gi) [% inhibition] | maximal inhibition of adenylyl cyclase (epinephrine, higher expressing CHO lines) (Gi) [% inhibition] | other results
GRK2 (βARK1) (enzyme) |  |  |  |  |  |  |  |  |  |  |  |  |  |  | agonist-promoted whole cell receptor phosphorylation (norepinephrine, COS-7 cells coexpressing GRK2) (fold increase) [1]: 5.84; agonist-promoted whole cell receptor phosphorylation (norepinephrine, COS-7 cells coexpressing GRK2) (fold increase) [2]: 3.28
GRK2 (βARK1) |  |  |  |  |  |  |  |  |  |  |  |  |  |  | agonist-promoted phosphorylation as percent of wild-type [3]: the Del301-303 receptor displayed -56% of wild-type phosphorylation; basal phosphorylation, compared with the wild-type receptor [3]: Basal phosphorylation was equivalent between the two receptors
polymorphic Lys251 alpha-2A adrenergic receptor, P08913 16-465 (receptor) MGSLQPDAGNASWNGTEAPGGGARATPYSLQVTLTLVCLAGLLMLLTVFGNVLVIIAVFTSRALKAPQNLFLVSLASADILVATLVIPFSLANEVMGYWYFGKAWCEIYLALDVLFCTSSIVHLCAISLDRYWSITQAIEYNLKRTPRRIKAIIITVWVISAVISFPPLISIEKKGGGGGPQPAEPRCEINDQKWYVISSCIGSFFAPCLIMILVYVRIYQIAKRRTRVPPSRRGPDAVAAPPGGTERRPKGLGPERSAGPGGAEAEPLPTQLNGAPGEPAPAGPRDTDALDLEESSSSDHAERPPGPRRPERGPRGKGKARASQVKPGDSLPRRGPGATGIGTPAAGPGEERVGAAKASRWRGRQNREKRFTFVLAVVIGVFVVCWFPFFFTYTLTAVGCSVPRTLFKFFFWFGYCNSSLNPVIYTIFNHDFRRAFKKILCRGDRKRIV | 60 | 50 | 57 |  |  |  |  |  |  |  |  |  |  |  | 
Del322-325 alpha-2C adrenergic receptor, P18825 1-462 (receptor) MASPALAAALAVAAAAGPNASGAGERGSGGVANASGASWGPPRGQYSAGAVAGLAAVVGFLIVFTVVGNVLVVIAVLTSRALRAPQNLFLVSLASADILVATLVMPFSLANELMAYWYFGQVWCGVYLALDVLFCTSSIVHLCAISLDRYWSVTQAVEYNLKRTPRRVKATIVAVWLISAVISFPPLVSLYRQPDGAAYPQCGLNDETWYILSSCIGSFFAPCLIMGLVYARIYRVAKRRTRTLSEKRAPVGPDGASPTTENGLGAAAGAGENGHCAPPPADVEPDESSAAAERRRRRGALRRGGRRRAGAEGGAGGADGQGAAESGALTASRSPGPGGRLSRASSRSVEFFLSRRRRARSSVCRRKVAQAREKRFTFVLAVVMGVFVLCWFPFFFIYSLYGICREACQVPGPLFKFFFWIGYCNSSLNPVIYTVFNQDFRPSFKHILFRRRRRGFRQ |  |  |  | 11 | 7.3 | 31 | 26.7 | 30.8 | 20.9 | 30 | 34.9 | 12.8 | 10 | 31 | impairment of inositol phosphate accumulation against wild-type (Gi/Go): 60 % impairment; impairment of maximal adenylyl cyclase inhibition against wild-type (higher expressing CHO lines) (Gi): 50 % impairment

More lines, main results first:

inhibition of adenylyl cyclase (epinephrine, CHO membranes) (Gi) [% inhibition] | maximal inhibition of adenylyl cyclase (partial agonist oxymetazoline, CHO membranes) (Gi) [% inhibition] | stimulation of MAP kinase (10 µM epinephrine, CHO cells) (fold increase over basal) (Gi) | epinephrine-stimulated accumulation of inositol phosphates (10 µM, intact CHO cells) (Gi/Go) [% over basal] | high affinity dissociation constant KH of the agonist epinephrine (competition with [3H]yohimbine without GTP) (Gi/Go) [nM] | percentage of receptors in the high-affinity state (% RH), epinephrine competition without GTP (Gi/Go) [%] | Max Inhibition (%) of adenylyl cyclase, BHT-933 (Gi) [%] | Max Inhibition (%) of adenylyl cyclase, UK 14304 (Gi) [%] | Max Inhibition (%) of adenylyl cyclase, clonidine (Gi) [%] | Max Inhibition (%) of adenylyl cyclase, guanabenz (Gi) [%] | Max Inhibition (%) of adenylyl cyclase, norepinephrine (Gi) [%] | Max Inhibition (%) of adenylyl cyclase, oxymetazoline (Gi) [%] | inhibition of adenylyl cyclase (epinephrine, lower expressing CHO lines) (Gi) [% inhibition] | maximal inhibition of adenylyl cyclase (epinephrine, higher expressing CHO lines) (Gi) [% inhibition] | Molecule | other results
46 | 35 | 15 |  |  |  |  |  |  |  |  |  |  |  | wild-type Asn251 alpha-2A adrenergic receptor, P08913 16-465 (receptor) MGSLQPDAGNASWNGTEAPGGGARATPYSLQVTLTLVCLAGLLMLLTVFGNVLVIIAVFTSRALKAPQNLFLVSLASADILVATLVIPFSLANEVMGYWYFGKAWCEIYLALDVLFCTSSIVHLCAISLDRYWSITQAIEYNLKRTPRRIKAIIITVWVISAVISFPPLISIEKKGGGGGPQPAEPRCEINDQKWYVISSCIGSFFAPCLIMILVYVRIYQIAKRRTRVPPSRRGPDAVAAPPGGTERRPNGLGPERSAGPGGAEAEPLPTQLNGAPGEPAPAGPRDTDALDLEESSSSDHAERPPGPRRPERGPRGKGKARASQVKPGDSLPRRGPGATGIGTPAAGPGEERVGAAKASRWRGRQNREKRFTFVLAVVIGVFVVCWFPFFFTYTLTAVGCSVPRTLFKFFFWFGYCNSSLNPVIYTIFNHDFRRAFKKILCRGDRKRIV | 
 |  |  | 30 | 3.7 | 49 | 56.8 | 67.6 | 38.5 | 53.8 | 76.6 | 27 | 73 | 60 | wild-type alpha-2C adrenergic receptor, P18825 1-462 (receptor) MASPALAAALAVAAAAGPNASGAGERGSGGVANASGASWGPPRGQYSAGAVAGLAAVVGFLIVFTVVGNVLVVIAVLTSRALRAPQNLFLVSLASADILVATLVMPFSLANELMAYWYFGQVWCGVYLALDVLFCTSSIVHLCAISLDRYWSVTQAVEYNLKRTPRRVKATIVAVWLISAVISFPPLVSLYRQPDGAAYPQCGLNDETWYILSSCIGSFFAPCLIMGLVYARIYRVAKRRTRTLSEKRAPVGPDGASPTTENGLGAAAGAGENGHCAPPPADVEPDESSAAAERRRRRGALRRGGRRRAGAEGGAGGADGQGAGPGAAESGALTASRSPGPGGRLSRASSRSVEFFLSRRRRARSSVCRRKVAQAREKRFTFVLAVVMGVFVLCWFPFFFIYSLYGICREACQVPGPLFKFFFWIGYCNSSLNPVIYTVFNQDFRPSFKHILFRRRRRGFRQ | 
